Data set [1] deals with the molecule itself. Nature of the data set: crystal structure; DBD co-crystallised with a sticky-ended three-site HSE DNA duplex (21 bp for HSF2; 23 bp and 24 bp for HSF1); protein:DNA molar ratio 3:1.2; hanging drop, 20°C; three DBD copies on one DNA duplex.
Data set [2] concerns the target T1, HSF1-DBD trimer (Homo sapiens, UniProt Q00613 15-120). Description: X-ray crystallography; 2.36 A; Co-crystallization at 20 C, hanging drop; protein stock in 20 mM Tris pH 8.0, 150 mM NaCl, 1 mM DTT, 0.2 mM EDTA; DNA annealed in TE; protein:DNA 2:1.5 (2-site) or 3:1.2 (3-site); HSF2 3-site reservoir 0.1 M HEPES pH 7.5, 25% PEG. To be noted: protein: recombinant; tags: His6 (N-terminal, between MBP and DBD; MBP removed in vivo by TEV protease); chain copies: 3; 23 bp, 5' overhang 1 nt on both strands.

Another data set deals with HSF1-DBD (Homo sapiens, UniProt Q00613 15-120). Description: X-ray crystallography; 2.0 A; Co-crystallization at 20 C, hanging drop; protein stock in 20 mM Tris pH 8.0, 150 mM NaCl, 1 mM DTT, 0.2 mM EDTA; DNA annealed in TE; protein:DNA 2:1.5 (2-site) or 3:1.2 (3-site); HSF2 3-site reservoir 0.1 M HEPES pH 7.5, 25% PEG. The note with it: protein: recombinant; tags: His6 (N-terminal, between MBP and DBD; MBP removed in vivo by TEV protease); chain copies: 2; blunt; self-complementary, 2 copies of the strand.

For another data set, the target named is HSF2-DBD trimer (Homo sapiens, UniProt Q03933 7-112). Nature of the data set: X-ray crystallography; 1.75 A; Co-crystallization at 20 C, hanging drop; protein stock in 20 mM Tris pH 8.0, 150 mM NaCl, 1 mM DTT, 0.2 mM EDTA; DNA annealed in TE; protein:DNA 2:1.5 (2-site) or 3:1.2 (3-site); HSF2 3-site reservoir 0.1 M HEPES pH 7.5, 25% PEG. To be noted: protein: recombinant; tags: His6 (N-terminal, between MBP and DBD; MBP removed in vivo by TEV protease); chain copies: 3; 20 bp, 5' overhang 1 nt on both strands.

A further data set deals with HSF2-DBD (Homo sapiens, UniProt Q03933 7-112). Description: X-ray crystallography; 1.7 A; Co-crystallization at 20 C, hanging drop; protein stock in 20 mM Tris pH 8.0, 150 mM NaCl, 1 mM DTT, 0.2 mM EDTA; DNA annealed in TE; protein:DNA 2:1.5 (2-site) or 3:1.2 (3-site); HSF2 3-site reservoir 0.1 M HEPES pH 7.5, 25% PEG. The note with it: protein: recombinant; tags: His6 (N-terminal, between MBP and DBD; MBP removed in vivo by TEV protease); chain copies: 2; blunt; self-complementary, 2 copies of the strand.

Data set [3] addresses T1, HSF1-DBD trimer. Description: X-ray crystallography; 2.4 A; Co-crystallization at 20 C, hanging drop; protein stock in 20 mM Tris pH 8.0, 150 mM NaCl, 1 mM DTT, 0.2 mM EDTA; DNA annealed in TE; protein:DNA 2:1.5 (2-site) or 3:1.2 (3-site); HSF2 3-site reservoir 0.1 M HEPES pH 7.5, 25% PEG. The note with it: protein: recombinant; tags: His6 (N-terminal, between MBP and DBD; MBP removed in vivo by TEV protease); chain copies: 3; 22 bp, 5' overhang 1 nt on both strands.

B1: DNA-binding domain (DBD) of human heat shock factor 2 (HSF2), residues 7-112 (domain or fragment, UniProt Q03933 7-112, looked up)
chain: VPAFLSKLWTLVEETHTNEFITWSQNGQSFLVLDEQRFAKEILPKYFKHNNMASFVRQLNMYGFRKVVHIDSGIVKQERDGPVEFQHPYFKQGQDDLLENIKRKVS
notes: The His6 tag lies between the TEV site and the DBD; MBP was removed in vivo by co-expressed TEV protease; In the crystals, two or three copies sit on one DNA duplex; also called HSF2-DBD; DBD I; source: E. coli Rosetta2(DE3) carrying pRK603, purified (Ni-NTA, cation exchange, SEC); not shown: MBP, N-terminal, cleaved
B1: the binding result in data set [1] is on record as “binds”.

B2: DNA-binding domain (DBD) of human heat shock factor 1 (HSF1), residues 15-120 (domain or fragment, UniProt Q00613 15-120, looked up)
chain: VPAFLTKLWTLVSDPDTDALICWSPSGNSFHVFDQGQFAKEVLPKYFKHNNMASFVRQLNMYGFRKVVHIEQGGLVKPERDDTEFQHPCFLRGQEQLLENIKRKVT
notes: The His6 tag lies between the TEV site and the DBD; MBP was removed in vivo by co-expressed TEV protease; In the crystals, two or three copies sit on one DNA duplex; also called HSF1-DBD; DBD I; source: E. coli Rosetta2(DE3) carrying pRK603, purified (Ni-NTA, cation exchange, SEC); not shown: MBP, N-terminal, cleaved
B2: in data set [1], the binding result is “binds”.

B3: 24 bp 3-site HSE (dsDNA)
DNA 1: TGTGCGTTCTAGAATATTCGCGAG
DNA 2: ACTCGCGAATATTCTAGAACGCAC
In the case of B3, the binding result with HSF1-DBD trimer [2] is “binds”.

B4: 14 bp HtH HSE (dsDNA)
DNA 1: GCCGAATATTCGGC
DNA 2: GCCGAATATTCGGC
On to B4, for which, in the data set with HSF1-DBD, the binding result is given as “binds”.

B5: 21 bp 3-site HSE (dsDNA)
DNA 1: TGCGTTCTAGAATATTCGCGG
DNA 2: ACCGCGAATATTCTAGAACGC
Turning to B5, the binding result in the data set with HSF2-DBD trimer is recorded as “binds”.

B6: 12 bp HtH HSE (dsDNA)
DNA 1: GGGAATATTCCC
DNA 2: GGGAATATTCCC
Turning to B6, the binding result with HSF2-DBD is listed as “binds”.

B7: 23 bp 3-site HSE (dsDNA)
DNA 1: TGGCGTTCTAGAATATTCGCGGA
DNA 2: ATCCGCGAATATTCTAGAACGCC
For B7, the binding result with HSF1-DBD trimer [3] is recorded as “binds”.
